Assay results reported in publication PMC12499469.

Molecular target: GRB2 (human (cDNA from 293T or brain glioma cells)), P62993
Assay: molecular recruitment colocalization (MRC), live-cell fluorescence imaging; bait fused to scFv and a fluorescent protein, recruited by dCas9-10xGCN4 (SunTag) and sgRNA MUC4-272kb to a repeated genomic locus in SunTag10x-dCas9-HEK293T cells; preys fused to mCherry or mTagBFP2 with NLS; colocalized spots imaged 24 h after transfection, 37 °C
Conditions: remark: other sources report otherwise

GRB2 (human (cDNA from 293T or brain glioma cells)), P62993, sequence (P62993 whole entry, the tested form may be a part): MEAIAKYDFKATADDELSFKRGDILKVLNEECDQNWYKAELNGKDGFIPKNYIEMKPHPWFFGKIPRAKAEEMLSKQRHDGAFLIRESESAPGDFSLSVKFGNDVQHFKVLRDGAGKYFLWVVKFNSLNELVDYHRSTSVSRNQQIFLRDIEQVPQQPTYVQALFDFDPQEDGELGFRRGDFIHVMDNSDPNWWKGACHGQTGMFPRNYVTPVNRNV

B1: SOS1, Q07889 1-1333 (natural protein)
chain: MQAQQLPYEFFSEENAPKWRGLLVPALKKVQGQVHPTLESNDDALQYVEELILQLLNMLCQAQPRSASDVEERVQKSFPHPIDKWAIADAQSAIEKRKRRNPLSLPVEKIHPLLKEVLGYKIDHQVSVYIVAVLEYISADILKLVGNYVRNIRHYEITKQDIKVAMCADKVLMDMFHQDVEDINILSLTDEEPSTSGEQTYYDLVKAFMAEIRQYIRELNLIIKVFREPFVSNSKLFSANDVENIFSRIVDIHELSVKLLGHIEDTVEMTDEGSPHPLVGSCFEDLAEELAFDPYESYARDILRPGFHDRFLSQLSKPGAALYLQSIGEGFKEAVQYVLPRLLLAPVYHCLHYFELLKQLEEKSEDQEDKECLKQAITALLNVQSGMEKICSKSLAKRRLSESACRFYSQQMKGKQLAIKKMNEIQKNIDGWEGKDIGQCCNEFIMEGTLTRVGAKHERHIFLFDGLMICCKSNHGQPRLPGASNAEYRLKEKFFMRKVQINDKDDTNEYKHAFEIILKDENSVIFSAKSAEEKNNWMAALISLQYRSTLERMLDVTMLQEEKEEQMRLPSADVYRFAEPDSEENIIFEENMQPKAGIPIIKAGTVIKLIERLTYHMYADPNFVRTFLTTYRSFCKPQELLSLIIERFEIPEPEPTEADRIAIENGDQPLSAELKRFRKEYIQPVQLRVLNVCRHWVEHHFYDFERDAYLLQRMEEFIGTVRGKAMKKWVESITKIIQRKKIARDNGPGHNITFQSSPPTVEWHISRPGHIETFDLLTLHPIEIARQLTLLESDLYRAVQPSELVGSVWTKEDKEINSPNLLKMIRHTTNLTLWFEKCIVETENLEERVAVVSRIIEILQVFQELNNFNGVLEVVSAMNSSPVYRLDHTFEQIPSRQKKILEEAHELSEDHYKKYLAKLRSINPPCVPFFGIYLTNILKTEEGNPEVLKRHGKELINFSKRRKVAEITGEIQQYQNQPYCLRVESDIKRFFENLNPMGNSMEKEFTDYLFNKSLEIEPRNPKPLPRFPKKYSYPLKSPGVRPSNPRPGTMRHPTPLQQEPRKISYSRIPESETESTASAPNSPRTPLTPPPASGASSTTDVCSVFDSDHSSPFHSSNDTVFIQVTLPHGPRSASVSSISLTKGTDEVPVPPPVPPRRRPESAPAESSPSKIMSKHLDSPPAIPPRQPTSKAYSPRYSISDRTSISDPPESPPLLPPREPVRTPDVFSSSPLHLQPPPLGKKSDHGNAFFPNSPSPFTPPPPQTPSPHGTRRHLPSPPLTQEVDLHSIAGPPVPPRQSTSQHIPKLPPKTYKREHTHPSMHRDGPPLLENAHSS
SNR ratio (GRB2/SOS1 puncta): 1.46
